± gives the standard deviation of the averaged measurements.
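Further: ATP exposure 15 min at 22 °C before imaging.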

The data set deals with ATP. Kind of data set: switch fluorescence ratio, 500 uM ATP over buffer (Cy3 cluster intensity, sum of 5 cycles each) (fold (ratio)); higher = stronger signal-on switching upon ATP binding; sequences stand for … in TCGTCGGCAGCGTCAGATGTGTATAAGAGACAGTTTTTTTTTTTTTTTTTTTTTTTTT…TC. The conditions noted are these: aptamer strand: ATP DNA aptamer (quencher-CACCTGGGGGAGTATTGCGGAGGAAGG + anchor), 100 nM annealed; ATP concentration: 500 uM. A digest of the protocol:
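Imaging in selection buffer was followed by imaging after 15 min with 500 uM ATP at 22 °C, for Cy3-labelled switching-strand clusters annealed to 100 nM quencher-labelled ATP aptamer on a modified Illumina MiSeq flow-cell. Five of these buffer/ATP cycles ran, separated by NaOH stripping and re-annealing. The fluorescence ratio per cluster is summed target-cycle over summed buffer-cycle Cy3 intensity, averaged per switch-domain sequence; clusters outside 100-1000 RFU were removed.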
Take TAGAAGGGCA: the switch fluorescence ratio was 0.988 ± 0.015.

In the case of AAGTGAATGG, the switch fluorescence ratio was determined as 0.9986 ± 0.0032.

With CTCTGTGTTA, the switch fluorescence ratio was found to be 1.06 ± 0.015.

ACCGGGCCCT: the switch fluorescence ratio worked out at 1.008 ± 0.0093.

For CGTTGCGGGA, the switch fluorescence ratio was determined as 1.01 ± 0.045.

Consider CTTAAAAATT, for which the switch fluorescence ratio came to 0.9777 ± 0.0031.

As to TTTTTTCAAC, the switch fluorescence ratio was 1.15 ± 0.26.

Regarding GATCTTGTTT, the switch fluorescence ratio worked out at 0.976 ± 0.018.

Turning to TAGGGAATGA, the switch fluorescence ratio amounted to 1 ± 0.016.

For TAAAGGTTCG, the switch fluorescence ratio was 0.9618 ± 0.009.

As for AAATAGACCG, the switch fluorescence ratio was determined as 1 ± 0.0091.

GAATCACAGC: the switch fluorescence ratio is 1.02 ± 0.033.

For the sequence TTAGGGGGCG, the switch fluorescence ratio turned out to be 1.03 ± 0.045.

In the case of CGTTGCTCGG, the switch fluorescence ratio was 1 ± 0.0083.

As for TACCACGGGT, the switch fluorescence ratio is 1.03 ± 0.018.

With TTAGTATTTA, the switch fluorescence ratio is 1.01 ± 0.056.

As for AACGTAGGTA, the switch fluorescence ratio was found to be 1.038 ± 0.0051.

With ATTGGGGAGC, the switch fluorescence ratio was determined as 0.989 ± 0.014.

Regarding AGTGTTAGTG, the switch fluorescence ratio was 0.997 ± 0.037.

Regarding AAGGGTTTGA, the switch fluorescence ratio came to 1.032 ± 0.0096.

For CGTGTCGTGC, the switch fluorescence ratio is 0.971 ± 0.062.

With GGGGCGCGGT, the switch fluorescence ratio came out at 1.025 ± 0.0058.

Take CGCTGTATCG: the switch fluorescence ratio is 0.996 ± 0.043.

Regarding ACTAAAAGGT, the switch fluorescence ratio came to 1.01 ± 0.012.

With TGCTTGCTTT, the switch fluorescence ratio was determined as 1.004 ± 0.01.

Take TAGAATTTGG: the switch fluorescence ratio came out at 1.01 ± 0.06.

With TAGTTGTTTT, the switch fluorescence ratio was 1 ± 0.04.

For TTGGGGTAAG, the switch fluorescence ratio is 0.971 ± 0.03.

TTCACTATTT: the switch fluorescence ratio stood at 1.02 ± 0.028.

Consider CATGATGCTG, for which the switch fluorescence ratio stood at 1.01 ± 0.033.

Consider GGGATCTGTT, for which the switch fluorescence ratio was found to be 1.01 ± 0.019.

Turning to TGAAGCTTTA, the switch fluorescence ratio worked out at 1.06 ± 0.048.

Regarding GCCGGTTCTG, the switch fluorescence ratio turned out to be 1.06 ± 0.022.

Regarding TTAGGCAGGG, the switch fluorescence ratio was 1 ± 0.016.

Regarding AGTGGAAGGG, the switch fluorescence ratio was 0.957 ± 0.027.

For the sequence TATTTTGCGT, the switch fluorescence ratio was 1.002 ± 0.0024.

For the sequence CGGGCGATAA, the switch fluorescence ratio was 1.45 ± 0.0045.

Consider GACGATACGT, for which the switch fluorescence ratio is 1.14 ± 0.038.

For the sequence AGGGGAAGGG, the switch fluorescence ratio was found to be 1.02 ± 0.012.

With ACCAGGTGGT, the switch fluorescence ratio stood at 1.78 ± 1.1.

As for TTTATTAAAA, the switch fluorescence ratio is 0.99 ± 0.038.

Regarding CTTGAGATGT, the switch fluorescence ratio amounted to 1.02 ± 0.044.

Regarding ATTGCGCAAG, the switch fluorescence ratio turned out to be 1.01 ± 0.02.

Regarding GGGTTACGGG, the switch fluorescence ratio was determined as 1.008 ± 0.0045.

As for CTCGTTCCGG, the switch fluorescence ratio worked out at 0.997 ± 0.043.

Take GACTGGGGCA: the switch fluorescence ratio is 1.017 ± 0.0053.

ACAATGTGGT: the switch fluorescence ratio turned out to be 0.951 ± 0.018.

In the case of GGGAAATTTG, the switch fluorescence ratio stood at 0.991 ± 0.026.

As for TCCTTTAAGA, the switch fluorescence ratio is 0.998 ± 0.036.

With AAATACCGCA, the switch fluorescence ratio came out at 1.48 ± 0.17.

For the sequence CGTTCCATTG, the switch fluorescence ratio worked out at 1 ± 0.012.

On to GGACTTTAAG, for which the switch fluorescence ratio was 0.952 ± 0.046.

Consider AAGCGCCTTT, for which the switch fluorescence ratio amounted to 0.985 ± 0.02.

Consider TTAAAAGAGC, for which the switch fluorescence ratio was found to be 1.02 ± 0.035.

Take TACGACACCT: the switch fluorescence ratio worked out at 1.73 ± 0.027.

Take AATTTATGC: the switch fluorescence ratio was determined as 0.97 ± 0.011.

For the sequence TTGGGTCAGG, the switch fluorescence ratio was determined as 1.02 ± 0.028.

As for GATCCGGGGG, the switch fluorescence ratio was determined as 0.988 ± 0.043.

As for CTCGCAGGAA, the switch fluorescence ratio was determined as 1.75 ± 0.078.

With TACAGACCCG, the switch fluorescence ratio was found to be 1.07 ± 0.062.

For the sequence ATAAAATAAT, the switch fluorescence ratio came out at 0.977 ± 0.048.

Regarding AAAGAGAAGT, the switch fluorescence ratio is 1.02 ± 0.019.

Regarding GAGTTGGGTT, the switch fluorescence ratio is 1.01 ± 0.034.

Consider GGGGAGAATA, for which the switch fluorescence ratio came to 1.01 ± 0.026.

Consider TTGGGTTTCA, for which the switch fluorescence ratio worked out at 0.995 ± 0.053.

Regarding GTGATATAGC, the switch fluorescence ratio is 0.9807 ± 0.0071.

These data come from the supplement of paper PMC10126150.
